Assay results published in patent EP4775675A1 (Shanghai Hongcheng Biopharmaceutical Co., Ltd., dated 2026).

T1: human CLEC4D (human, UniProt Q8WXI8 39-215, limits assumed)
T1 sequence (looked up): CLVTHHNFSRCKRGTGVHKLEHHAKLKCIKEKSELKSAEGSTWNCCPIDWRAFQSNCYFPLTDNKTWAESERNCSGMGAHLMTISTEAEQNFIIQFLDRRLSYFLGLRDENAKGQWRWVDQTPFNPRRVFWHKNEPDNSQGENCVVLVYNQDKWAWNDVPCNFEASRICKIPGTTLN

T2: human CLEC6A (human, UniProt Q6EIG7 42-209, limits assumed)
T2 sequence (looked up): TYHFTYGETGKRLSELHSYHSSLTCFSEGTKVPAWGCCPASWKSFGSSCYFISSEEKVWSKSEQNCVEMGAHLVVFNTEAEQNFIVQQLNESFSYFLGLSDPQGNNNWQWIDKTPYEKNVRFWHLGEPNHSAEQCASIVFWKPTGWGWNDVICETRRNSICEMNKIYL

T3: human CLEC4E (human, UniProt Q9ULY5 41-219, limits assumed)
T3 sequence (looked up): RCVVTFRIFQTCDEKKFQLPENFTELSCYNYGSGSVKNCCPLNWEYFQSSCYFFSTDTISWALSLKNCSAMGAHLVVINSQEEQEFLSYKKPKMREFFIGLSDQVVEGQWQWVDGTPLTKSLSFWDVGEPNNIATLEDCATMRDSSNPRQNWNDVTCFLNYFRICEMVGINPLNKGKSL

T4: human CLEC4A (human, UniProt Q9UMR7 70-237, limits assumed)
T4 sequence (looked up): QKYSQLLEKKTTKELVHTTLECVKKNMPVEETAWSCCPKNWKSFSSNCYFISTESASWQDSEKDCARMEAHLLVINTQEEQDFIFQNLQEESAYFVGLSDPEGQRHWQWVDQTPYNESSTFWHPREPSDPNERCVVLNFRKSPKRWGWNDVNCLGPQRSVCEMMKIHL

T5: Human BDCA-2 protein (soluble, Octet analyte) (human, UniProt Q8WTT0 45-213, limits assumed)
T5 construct: Soluble protein used as analyte in BLI
T5 sequence (looked up): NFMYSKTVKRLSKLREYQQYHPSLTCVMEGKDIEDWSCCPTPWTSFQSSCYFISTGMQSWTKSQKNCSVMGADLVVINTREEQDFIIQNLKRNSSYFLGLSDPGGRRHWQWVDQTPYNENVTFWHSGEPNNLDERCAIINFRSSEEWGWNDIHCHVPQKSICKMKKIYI

T6: human BDCA-2 on cells (Jurkat-hBDCA-2 cells; human pDCs; human PBMCs) (human, UniProt Q8WTT0 1-213)
T6 sequence (looked up): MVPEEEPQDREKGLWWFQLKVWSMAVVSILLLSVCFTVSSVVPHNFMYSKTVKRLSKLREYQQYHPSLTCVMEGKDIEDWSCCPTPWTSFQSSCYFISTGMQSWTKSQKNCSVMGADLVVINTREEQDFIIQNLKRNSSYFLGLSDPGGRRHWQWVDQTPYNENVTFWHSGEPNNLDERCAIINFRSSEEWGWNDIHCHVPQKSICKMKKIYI

T7: cynomolgus monkey BDCA-2 on cells (Jurkat-cynoBDCA-2 cells; cynomolgus monkey pDCs) (cynomolgus monkey, UniProt A0A2K5UWP4 1-212)
T7 construct: whole, on cells
T7 sequence: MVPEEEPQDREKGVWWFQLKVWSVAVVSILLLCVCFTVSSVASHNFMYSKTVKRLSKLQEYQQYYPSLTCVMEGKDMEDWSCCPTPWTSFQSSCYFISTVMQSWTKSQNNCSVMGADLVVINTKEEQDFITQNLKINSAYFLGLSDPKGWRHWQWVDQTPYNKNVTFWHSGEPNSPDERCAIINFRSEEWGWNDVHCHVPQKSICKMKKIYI


What was measured:
human CLEC4D = biological target: T1, human CLEC4D; assay: ELISA, coated protein 1 µg/ml
human CLEC6A = biological target: T2, human CLEC6A; assay: ELISA, coated protein 1 µg/ml
human CLEC4E = biological target: T3, human CLEC4E; assay: ELISA, coated protein 1 µg/ml
human CLEC4A = biological target: T4, human CLEC4A; assay: ELISA, coated protein 1 µg/ml
[1] = biological target: T5, Human BDCA-2 protein (soluble, Octet …); assay: BLI (Octet Red96e), antibody on anti-human IgG sensor, human BDCA-2 protein in solution
[2] = biological target: T6, human BDCA-2 on cells (Jurkat-hBDCA-2 …); assay: cell-based or functional assay
[3] = biological target: T6, human BDCA-2 on cells (Jurkat-hBDCA-2 …); assay: flow cytometry on Jurkat-hBDCA-2 cells
[4] = biological target: T7, cynomolgus monkey BDCA-2 on cells …; assay: flow cytometry on Jurkat-cynoBDCA-2 cells

| binding result (human CLEC4D) | binding result (human CLEC6A) | binding result (human CLEC4E) | binding result (human CLEC4A) | Kd [1] [nM] | koff [1] [s⁻¹] | kon [1] [M⁻¹ s⁻¹] | EC50, inhibition of CpGA-induced type I interferon (IFNα) production in human PBMC cells [2] [µg/mL] | EC50 [3] [µg/mL] | EC50 [4] [µg/mL] | Binder |
| --- | --- | --- | --- | --- | --- | --- | --- | --- | --- | --- |
| no binding (tested: 10 µg/ml) | no binding (tested: 10 µg/ml) | no binding (tested: 10 µg/ml) | no binding (tested: 10 µg/ml) | 3.2 | 0.000567 | 176000 | 0.0014 | 0.18 | 0.0943 | 17G6A2_hzH2L5_hIgG1 (antibody, V domains shown, Humanized, human IgG1/kappa (hzVH02 + hzVL05)) VH: EVQLVESGGGLVKPGGSLRLSCAASGFTFSSYGMSWVRQAPGKGLEWVATISSGDSYTYYPDSVKGRFTISRDNAKNSLYLQMNSLRAEDTAVYYCARQLYYSYGYYFDYWGQGTTVTVSS VL: DIVLTQSPASLAVSPGQRATITCRASESVSFHGTHLMHWYQQKPGQPPKLLIYAASNLESGVPARFSGSGSGTDFTLTINPVEAEDTANYYCQQSIEDPPTFGGGTKVEIKR |
| no binding (tested: 10 µg/ml) | no binding (tested: 10 µg/ml) | no binding (tested: 10 µg/ml) | no binding (tested: 10 µg/ml) |  |  |  | 0.0014 | 0.066 | 0.101 | 17G6A2_hzH3L5_hIgG1 (antibody, V domains shown, Humanized, human IgG1/kappa (hzVH03 + hzVL05)) VH: EVQLVESGGGLVKPGGSLRLSCAASGFTFSSYGMSWVRQAPGKRLEWVATISSGDSYTYYPDSVKGRFTISRDNAKNSLYLQMNSLRAEDTAVYYCARQLYYSYGYYFDYWGQGTTVTVSS VL: DIVLTQSPASLAVSPGQRATITCRASESVSFHGTHLMHWYQQKPGQPPKLLIYAASNLESGVPARFSGSGSGTDFTLTINPVEAEDTANYYCQQSIEDPPTFGGGTKVEIKR |
| no binding (tested: 10 µg/ml) | no binding (tested: 10 µg/ml) | no binding (tested: 10 µg/ml) | no binding (tested: 10 µg/ml) |  |  |  | 0.0017 | 0.0831 | 0.0663 | 17G6A2_hzH3L6_hIgG1 (antibody, V domains shown, Humanized, human IgG1/kappa (hzVH03 + hzVL06)) VH: EVQLVESGGGLVKPGGSLRLSCAASGFTFSSYGMSWVRQAPGKRLEWVATISSGDSYTYYPDSVKGRFTISRDNAKNSLYLQMNSLRAEDTAVYYCARQLYYSYGYYFDYWGQGTTVTVSS VL: DIVLTQSPASLAVSPGQRATITCRASESVSFHGTHLMHWYQQKPGQPPKLLIYAASNLESGVPARFSGSGSGTDFTLTINPVEANDAANYYCQQSIEDPPTFGGGTKVEIKR |
| no binding (tested: 10 µg/ml) | no binding (tested: 10 µg/ml) | no binding (tested: 10 µg/ml) | no binding (tested: 10 µg/ml) | 6.3 | 0.000872 | 138000 | 0.0011 | 0.0442 | 0.0781 | 17G6A2_hzH1L8_hIgG1 (antibody, V domains shown, Humanized, human IgG1/kappa (hzVH01 + hzVL08); also called 17G6A2_hzHL8_hIgG1) VH: EVQLVESGGGLVKPGGSLRLSCAASGFTFSSYGMSWVRQAPGKGLEWVSTISSGDSYTYYPDSVKGRFTISRDNAKNSLYLQMNSLRAEDTAVYYCARQLYYSYGYYFDYWGQGTTVTVSS VL: DIVLTQSPASLAVSPGQRATITCRASESVSFHGTHLMHWYQQKPGQPPKLLIYAASNLESGVPARFSGSGSETDFTLTINPVEANDAANYYCQQSIEDPPTFGGGTKVEIKR |
| no binding (tested: 10 µg/ml) | no binding (tested: 10 µg/ml) | no binding (tested: 10 µg/ml) | no binding (tested: 10 µg/ml) |  |  |  | 0.0011 | 0.0583 | 0.0975 | 17G6A2_hzH3L7_hIgG1 (antibody, V domains shown, Humanized, human IgG1/kappa (hzVH03 + hzVL07)) VH: EVQLVESGGGLVKPGGSLRLSCAASGFTFSSYGMSWVRQAPGKRLEWVATISSGDSYTYYPDSVKGRFTISRDNAKNSLYLQMNSLRAEDTAVYYCARQLYYSYGYYFDYWGQGTTVTVSS VL: DIVLTQSPASLAVSPGQRATITCRASESVSFHGTHLMHWYQQKPGQPPKLLIYAASNLESGVPARFSGSGSETDFTLTINPVEAEDTANYYCQQSIEDPPTFGGGTKVEIKR |
| no binding (tested: 10 µg/ml) | no binding (tested: 10 µg/ml) | no binding (tested: 10 µg/ml) | no binding (tested: 10 µg/ml) |  |  |  | 0.0011 | 0.0456 | 0.0688 | 17G6A2_hzH3L8_hIgG1 (antibody, V domains shown, Humanized, human IgG1/kappa (hzVH03 + hzVL08)) VH: EVQLVESGGGLVKPGGSLRLSCAASGFTFSSYGMSWVRQAPGKRLEWVATISSGDSYTYYPDSVKGRFTISRDNAKNSLYLQMNSLRAEDTAVYYCARQLYYSYGYYFDYWGQGTTVTVSS VL: DIVLTQSPASLAVSPGQRATITCRASESVSFHGTHLMHWYQQKPGQPPKLLIYAASNLESGVPARFSGSGSETDFTLTINPVEANDAANYYCQQSIEDPPTFGGGTKVEIKR |
|  |  |  |  |  |  |  |  | 0.0429 | 0.158 | 164C11B8_hzH1L1_hIgG1 (antibody, V domains shown) VH: EVQLLESGGGLVQPGGSLRLSCAASGFTFSTYTMSWVRQAPGKGLEWVSTINSGGDNTYYPDSVKGRFTISRDNSKNTLYLQMNSLRAEDTAVYYCATYRPYYYGSVLDYWGQGTTVTVSS VL: DIVMTQSPDSLAVSLGERATINCKASQSVDYDGNSYVNWYQQKPGQPPKLLIYGASNLESGVPDRFSGSGSGTDFTLTISSLQAEDVAVYYCQQSDEDPWTFGGGTKVEIKR |
|  |  |  |  |  |  |  |  | 0.104 | 0.252 | 164C11B8_hzH2L1_hIgG1 (antibody, V domains shown) VH: EVQLLESGGGLVQPGGSLRLSCAASGFTFSTYTMSWVRQAPGKGLEWVATINSGGDNTYYPDSVKGRFTISRDNSKNTLYLQMNSLRAEDTAVYYCATYRPYYYGSVLDYWGQGTTVTVSS VL: DIVMTQSPDSLAVSLGERATINCKASQSVDYDGNSYVNWYQQKPGQPPKLLIYGASNLESGVPDRFSGSGSGTDFTLTISSLQAEDVAVYYCQQSDEDPWTFGGGTKVEIKR |
|  |  |  |  |  |  |  |  | 0.191 | 0.31 | 164C11B8_hzH4L1_hIgG1 (antibody, V domains shown) VH: EVQLLESGGGLVQPGGSLRLSCAASGITFSTYTMSWVRQAPGKRLEWVATINSGGDNTYYPDSVKGRFTISRDNSKNTLYLQMNSLRAEDTAVYYCATYRPYYYGSVLDYWGQGTTVTVSS VL: DIVMTQSPDSLAVSLGERATINCKASQSVDYDGNSYVNWYQQKPGQPPKLLIYGASNLESGVPDRFSGSGSGTDFTLTISSLQAEDVAVYYCQQSDEDPWTFGGGTKVEIKR |
|  |  |  |  |  |  |  |  | 0.0675 |  | 164C11B8_hzH3L1_hIgG1 (antibody, V domains shown) VH: EVQLLESGGGLVQPGGSLRLSCAASGITFSTYTMSWVRQAPGKGLEWVATINSGGDNTYYPDSVKGRFTISRDNSKNTLYLQMNSLRAEDTAVYYCATYRPYYYGSVLDYWGQGTTVTVSS VL: DIVMTQSPDSLAVSLGERATINCKASQSVDYDGNSYVNWYQQKPGQPPKLLIYGASNLESGVPDRFSGSGSGTDFTLTISSLQAEDVAVYYCQQSDEDPWTFGGGTKVEIKR |
